Paper doi:10.1101/666776

Test system: Cascade/I-C (Cas5, Cas8c, Cas7 with crRNA) (Bacillus halodurans C-125)
Test: EMSA?

Work on “TACTTCCAATCCAATGCAGGTACCATCGAAAGTAACTCCATCCATAACTAAGCAACCTGTACTAGTAATCGAAAGCTTTTATCCACTTCCAATGTTATTA (double strand) [100 bp target, TTC PAM]” yielded a Kd of 148 nM.
